In a protein production outcome set (Wang et al. 2014):

Assay: label from the status in PepcDB records

Row | Sequence | protein production
1 | MAYDGLFTKKMVESLQFLTTGRVHKINQPDNDTILMVVRQNRQNHQLLLSIHPNFSRLQLTTKKYDNPFNPPMFARVFRKHLEGGIIESIKQIGNDRRIEIDIKSKDEIGDTIYRTVILEIMGKHSNLILVDENRKIIEGFKHLTPNTNHYRTVMPGFNYEAPPTQHKINPYDITGAEVLKYIDFNAGNIAKQLLNQFEGFSPLITNEIVSRRQFMTSSTLPEAFDEVMAETKLPPTPIFHKNHETGKEDFYFIKLNQFNDDTVTYDSLNDLLDRFYDARGERERVKQ | not failed
2 | MYYKQLDSLVFTDGESIAKARLASMTDMWFSSDLHLGHKFVASMRGFDDPDEHDEVILSNFENTIGPDDVLWILGDLSSGAHRAEERALGLIAERLGGVVKHLVPGNHDSCHPMYRHAYKRQRRFLEVFDSVQAFQRMKWDDEDVYLSHFPRPGQDHPGMESRFDDLRLRVPLLIHGHLHSQFPMTGPGQVDVGVEAWGLKPAPRELVQLKLWESLSEKILEHHHHHH | failed
3 | PKRTAATAGALMIGVAVVSLFTVFGASLKATMDQTVSRSFAGDVAVSAPSFGAGGSGLSPRLAGAIQELPEVDTAVGLGRGVAEVDGQGRALTVTDPAALNRTFDLGAVHGSLDDLGTDGIAITENEADERGLTTGDTTRLTFTDGHSGTFTVRAVYGQSELAGDYVITRAAWAPHRTQDSDTLVAVAFEDGVGADAGKAAVEKVADRYGNPEVQTREEYAESSAGGIDMMLTLVYALLALAVLIALLGISNTLTLAVHERTRELGLLRAVGQTRAQLRAMVRWESVLVAAFGTVGGLGLGAFLGWVLVAASDGASDSAFAFAVPPAQLAVVALVGLAAGALAGVRPARRASRLDVLRAVAT | failed
4 | MSKLIGMLLNDKQVYVGPFLRGKKGILLAVESLKGNTFDDKQWVVDRAQKKSEREMELKVPYEQSLKEIADKFQSYNFRGSGFVAFSTQNVTISGICKDVIDESVAMPPSVGPRMPIYPLGSPGIRKSMFYG | not failed
5 | MGHHHHHHSHMIESGIWSRMSEMIRSSGHSHHCSPQEYRFLPPVGDDDLPGDLQSLSWLTAVDVPRLQQMANGRIDLGSSGVTHPHPGALAGTADLHVGAAPRPLLRRSQTAVVPRGVLGLSPIGNHRASAEQMNQFPAGGQASSGLQEMPQLYSPATQIPFPLPLGSQQCPPAGLYGSPFSARPSYPQAHGAMHASQEPHPKHYPKPIYSYSCLIAMALKNSKTGSLPVSEIYSFMKEHFPYFKTAPDGWKNSVRHNLSLNKCFEKVETKSSGSSRKGCLWALNLARIDKMEEEMHKWKRKDLAAIHRSMANPEELDKLISDRPESCRRPGKRGEPKAPMLTHATTVAMAHSCLAISQLPPKPLMTLSLQSVPLHHQLQPQAHLAPDSPAPAQTPPLHALPSLSPGPLPQPAMGRVPGDFLNINSDMNTEVDALDPSIMDFALQGNLWEEMKEDSFSLDTLEAFGDSPLGCDLGAPSLTPVSGNSDQSFPDVQVTGLYAAYSTAADGVAPSAANSAQYLGTPGNKPIALL | failed
6 | MFGAELVIVLLAIYLGARLGGIGIGFAGGLGVLVLTLIFQIKPGAIPFDVIEIIMAVIAAIAAMQVAGGMDYLVSLAERMLRRHPKYITFLAPLVTWFMTVLAGTGHTAFSTLPVITEVAKEQGIRPSRPLSIAVVASQIAITASPISAAVVFFAGILEPLGVSYLTLLAICIPVTLLAVMLTAIVCNFLGCELKDDPVYQERLAKGEVRLRGSQVFELQPHAKRSVLLFLIGIVAVMFYATAISDTVGLIKNPVLPRNEAIVVFMLTIATLISITCKIDTGEVLNASTFKSGMSACVCVLGVAWLGDTFVKAHISDIQAVAGDLLHNYPWLLAVVLFFAATLLYSQAATTKALMPAALLLGVSPLTAIASFAAVSALFVLPTYPTLLAAVEMDDTGSTRIGKYVFNHAFLIPGVIAITLCVILGFIFGGIML | failed
7 | MTGVFLPPLPPSLRLQIKTMAESILPNAIRSQSQPQAFVQVEVWIRRLVWKIVIATVLLMAVGSATRVMNAGLACPDWPLCYGQWVPSQQMNLQVFLEWFHRLDAALIGFSTLILVGLSWWFRRVLPKWLPWATLGSLALILVQGLLGGLTVIELLRFDIVTAHLGTAMAFLGSLVIIGLCLMPYQSNQTAGKLRPVALASTTIIYLQCLLGGLVGSQWAAHQCLAIAGTQFCQVLHSHLLGVLPTVLGVGLTFWCTRRTPALNPFLRQLGNGALALLGGQILLGVATLKLHLQIEPLTVAHHTVGICLWATLLAIAVLAVRDHRPTAPITS | failed
8 | MLRNTSHSYGGIARALHWLCALAVIAALVFIELKGNFPKGDPLRSGLGYAHVQAGLIVLLLVLPRLAWRLGNPPPAIEPAPSPAMNLLAHAGHWALYALMLALPILGIAFIQANGREVALFGLALPAFMPNDPPLGKELKEIHELLGNVLLWLSILHAAAAVWHHRFLKDDTLTRLTGPMR | failed
9 | EHIVPSNQQQIVRVLRTPGNNLHEVETAQGQRFLVSMPSKYRKNIWIKRGDFLIVDPIEEGEKVKAEISFVLCKDHVRSLQKEGFWPEAFSEVAEKHN | not failed
10 | MIIQIVLWDCYTVPYFCFEKRRFMEELKFEELELCPEILKAVKHMGFEEASPIQSKAIPVIMSGKDVIGQAQTGTGKTAAFGIPLLEKIDPKNKKLQAIVLCPTRELAIQVAEEIRNLAKYMHGIKVLPIYGGQEIVKQIRSLKSGTQLVIGTPGRVMDHMRRKTMKMDHVHTIVLDEADEMLNMGFREDIETILEGIPQEHQTVLFSATMPKAILEITKQFQTNAELVKVTKKELTVPNIEQFYYEVKPKNKEEVLSRLLDIYTPKLSVVFCNTKKQVDLLVNGLLGRGYFAAGLHGDMKQAQRDRVMQGFRSGKTDILVCTDVAARGIDVDDVEAVFNYDLPQDDEYYVHRIGRTGRAGRVGRSFSFVSGREVYKLKEIQRYCKTKIYAQKVPSLNDVANTKMENVLEEIEQIIENEDLTKFLQIIEERVNESDYTAMDLAAAFLKYCSGQQETEEKDMEFGDTGAEEAGMVRLFINIGKKNKAKPGDIVGAIAGESGIPGKLIGTIDMFDKYTFVEVPREYARDVLNAMNHTKIKGKSVAVEPANQK | failed
11 | MVPRFATLGRIPKGVWVLGGVSLLMDVSSEMIHSLLPLFMATTLGASVIIIGLIEGLAEATALILKVFSGAISDYVGKRKGLALLGYGLGALSKPLFAIAPTAGVVFSARMIDRVGKGIRGAPRDALVADVTPPEIRGAAYGLRQALDTVGAFLGPLLAVLLMFIWANDFHAIFWVAVIPAVLSILLLGFGLQEPKSAIAHKRSNPLKRENLKKLSAAYWWVVAIGSIFTLARFSEAFLVLRAQQMEIPLYTIPLVMVAMNLVYSLTAYPFGKLSDSMSHSKLLQWGLLVLILADIVLALSGHWSTLLIGVALWGIHMGMTQGLLAAMVAHTAPPELRGTAFGMFNLMSGLALLLASTGAGVLWETFGAASTFYAGAIICVVTLIGMRVMPSAYRQD | not failed
12 | MRHRGGRGFRGWWLASTILLLVAEKPSHGYELAERLAEFGIEIPGIGHMGNIYRVLADLEESGFLSTEWDTTVSPPRKIYRITPQGKLYLREILRSLEDMKRRIETLEERIKRVLQEE | not failed
13 | MEIHSERKKRLSLSLLFKIIKDTVWGFIDDSVMRLSASLAYATLFSIIPFLSLLVTVGVFFHMDLANQLYVQLQPIVGPEVTEALRSIIENAENTDSSRSAAFVSLGISILGATTIFAEIQSSLNSIWGIKAVPKKSWLKFIKNRILSFSIILVFAFILLITFTITNIIGELSQKFIFKYPEVADSLVKVVGIIINMSVTTIIFTLIFKILPDAKIKSKDVCIGAVVTTILLLIGQWGISFYIGIANVGTVYGAAAFMVVFVTWIYYSSIIIYTGAEFTKAWANEMGGKIFPDEYAVATKTIEIHEDKPIE | failed
14 | MSVVPVADVLQGRVAVDQEVTVRGWVRTRRDSKAGISFLAVYDGSCFDPVQAVINNSLPNYNEEVLHLTTGCSVVVTGKVVASPGQGQSFEIQATKVEVAGWVEDPDTYPMAAKRHSIEYLREVAHLRPRTNLIGAVARVRHTLAQALHRFFDEQGFFWVSTPLITASDTEGAGEMFRVSTLDLENLPRNDQGRVDFDKDFFGKESFLTVSGQLNGETYACALSKIYTFGPTFRAENSNTSRHLAEFWMLEPEVAFADLEDNARLAEAMLKYVFNAVLEERADDMKFFAERVDKDAIARLERFVSTDFAQVDYTDAVAILERCGKTFENPVFWGVDLSSEHERYLAEEHFKAPVVVKNYPKEIKAFYMRLNEDGKTVAAMDVLAPGIGEIIGGSQREERLDVLDARMAEMGLNKEDYWWYRDLRRYGTVPHSGFGLGFERLIAYVTGVQNVRDVIPFPRTPRNASF | failed
15 | MEEGVNMDIRPTRIELIRTRRRIRLAKKGLDLLKMKRSALIYEFLQISRTIRGMKENLRKEVVEALNIIKVASVLEGSLALERIANMSSDSRINVNSRNVMGVNIPTLEVSYNLSILSDVYRTVSVPVAIDDSIRRFQKLFYDLILIVEKENSLRNLLMEIDRTKRRSNAIENILIPRLEYQAKMIKMTLDERERDTFTTLKTIKKKIEAENDLEHHHHHH | failed
16 | MRDTLPEWYKTKKNICDQMTEEINLWGYDMIETPTLEYYETVGVVSAILDQQLFKLLDQQGNTLVLRPDMTAPIARLVASSLKDRAYPLRLAYQSNVYRAQQNEGGKPAEFEQLGVELIGDGTASADGEVIALMIAALKRAGLSEFKVAIGHVGYVNALLMDVVGNEQRADRLRRFLYEKNYVGYREHVKSLNLSTIDKSRLMNLLSLRGGRAAIEEARGLIQTEKGKTALAEMTKLYEVLESYGASEYVKFDLTLVLHMSYYTGVVFEGYGNRLGVPLCSGGRYDELLSKFHRPAQATGFGVRIDLLVEALNGEIISN | not failed
17 | MSAESASQIPKGQVDLLDFIDWSGVECLNQSSSHSLPNALKQGYREDEGLNLESDADEQLLIYIPFNQVIKLHSFAIKGPEEEGPKTVKFFSNKEHMCFSNVNDFPPSDTAELTEENLKGKPVVLKYVKFQNVRSLTIFIEANQSGSEVTKVQKIALYGST | not failed
18 | MSVIKIEKALKLDKVIFVDVRTEGEYEEDHILNAINMPLFKNNEHNEVGTIYKMQGKHEAIQKGFDYVSYKLKDIYLQAAELALNYDNIVIYCARGGMRSGSIVNLLSSLGVNVYQLEGGYKAYRNFVLEYLRHVMDTK | not failed
19 | MKKSILFTFVLCLLSQWSVAQAPKWVEKAKRSVFSIVTYDKDDKIQNTGNGFFVTEDGVALSDYSLFKGAQRAVIINSEGEKMPVECILGANDMYDIIKFRVGITVKKVPALQVAALAPAVGAEVYLLPYSTQKGGNVTRGKVKKVDNIGGDKYHYYTLDMVLKDKMVSCPVTTADGKVFGVAQKSSGQDTASISYAAGAAFAMSQNISALALSDPALNAIGIKKGLPEDEDQALVYLFIASTQSTPEAYAIALDDFIKTFPNSADGYLRRAGNYVFADKDENHMDKAAADLEHALKVAQKKDDTYYNIAKLIYNYQLSKPETVYKDWTYDQALENVRSAIAIQSLPVYQQLEGDILFAKQDYAGAFASYDKVNQTELASPASFFSAAKAKELSKAAPEEVIALLDSCIARCQTPITSDLAPYLLERAQMYMNVEKYRLALADYDAYFNAVKGSVNDLFYYYREQAAFKAKQFQRALDDIAKAIELNPEDLTYRAEQAVVNLRVGRYEEAEKVLKDALAIDPKYAEGYRLLGICQIQLKQEKAACASFAKAKELGDPNVDELIKKHCK | failed
20 | MRKEIRFSGFGGQGIILAGVILGRAASLYAGKEAVQTQSYGPEARGGASKSEVVISEIEIDFPKVIQPDILISMSQPAFDKYGYDLKENARVIVDRDLVNLPEGYEEKYEVYKVPFTEIANKEVGLGIVANIVMLGALTKLSGLVPKEEVEKALLDSIPKGTEKKNLMAFEKGYEYL | not failed
21 | MQVRTLTPDDLPQACALCMDAFMQAVAPTLSAQGIETFTQVSAPQAFAERMQGDNLMLACFVEGAIAGLIELKEGRHIAMLFIAPGLQRQGIGKRLMNAALEHASAEVVTVKASLSSVPAYQRYGFTLAGDVGEFAGLVYQPMEKRLPTQPALEHHHHHH | not failed
